Experimental data as given in publication PMC8811837 (Advanced Science, 2021).

Target: T1, σ70 (E. coli, UniProt P00579)
T1 construct: also called σR4 (region 4); σ70 R4
Test: cryo-EM structure
Conditions: both partners purified

T1 sequence (P00579 whole entry): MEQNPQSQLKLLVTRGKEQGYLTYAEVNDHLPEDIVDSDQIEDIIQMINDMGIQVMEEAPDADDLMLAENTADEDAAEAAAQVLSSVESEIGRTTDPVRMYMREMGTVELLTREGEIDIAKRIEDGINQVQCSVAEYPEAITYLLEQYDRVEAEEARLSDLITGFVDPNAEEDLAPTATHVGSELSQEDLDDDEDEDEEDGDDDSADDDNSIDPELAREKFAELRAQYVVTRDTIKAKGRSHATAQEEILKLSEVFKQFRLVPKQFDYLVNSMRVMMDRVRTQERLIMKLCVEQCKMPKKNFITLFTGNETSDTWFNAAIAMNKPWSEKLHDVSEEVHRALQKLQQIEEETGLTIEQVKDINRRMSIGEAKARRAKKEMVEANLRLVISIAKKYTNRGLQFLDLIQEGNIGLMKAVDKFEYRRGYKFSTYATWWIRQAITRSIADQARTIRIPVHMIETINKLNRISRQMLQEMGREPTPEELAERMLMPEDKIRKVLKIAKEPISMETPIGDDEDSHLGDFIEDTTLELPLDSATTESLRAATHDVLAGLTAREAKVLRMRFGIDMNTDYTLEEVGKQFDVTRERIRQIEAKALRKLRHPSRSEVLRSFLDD

B1: RamA (natural protein)
chain: MTISAQVIDTIVEWIDDNLHQPLRIDDIARHAGYSKWHLQRLFLQYKGESLGRYIRERKLLLAARDLRDTDQRVYDICLKYGFDSQQTFTRVFTRTFNQPPGAYRKENHSRAH
B1: binds.
